# Values quoted from earlier work in publication PMC4359947.
# Target: CAR D1 (Homo sapiens) (UniProt P78310)
# Sequence of CAR D1 (P78310 20-134): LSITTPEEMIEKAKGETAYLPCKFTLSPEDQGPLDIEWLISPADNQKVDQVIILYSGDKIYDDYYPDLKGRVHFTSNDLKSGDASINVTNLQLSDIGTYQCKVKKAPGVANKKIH
substance,measurement,value
CAR D1 (from UniProt P78310),Kd,16 µM
